Results reported in patent US20140087995A1 (published 2014).
Numbered stars: 1 amine (or outer) side, 2 acyl side, 3 side chain; on linkers, the order of the positions; unused ones are H or OH. Bridge positions count the residues as written; N and C are the ends. Side chains are listed from the residue outwards. Ends that are not written are not given here. * marks the point of attachment. C20 diacid = O=C(O)CCCCCCCCCCCCCCCCCCC(=O)*; γGlu = O=C(O)[C@H](CCC(=O)[*:2])N[*:1]; AEEA = NCCOCCOCC(=O)O

T1: human amylin receptor (human, UniProt P30988 25-474; O60896 24-148, limits assumed)
T1 construct: whole, on cells; Calcitonin receptor plus RAMP-3 gives the amylin 3(a) receptor; membranes of Amylin 3(a)/CRE-luc cells were used; also called hAmylin-R; hAmylinR
T1 sequence (looked up) 1: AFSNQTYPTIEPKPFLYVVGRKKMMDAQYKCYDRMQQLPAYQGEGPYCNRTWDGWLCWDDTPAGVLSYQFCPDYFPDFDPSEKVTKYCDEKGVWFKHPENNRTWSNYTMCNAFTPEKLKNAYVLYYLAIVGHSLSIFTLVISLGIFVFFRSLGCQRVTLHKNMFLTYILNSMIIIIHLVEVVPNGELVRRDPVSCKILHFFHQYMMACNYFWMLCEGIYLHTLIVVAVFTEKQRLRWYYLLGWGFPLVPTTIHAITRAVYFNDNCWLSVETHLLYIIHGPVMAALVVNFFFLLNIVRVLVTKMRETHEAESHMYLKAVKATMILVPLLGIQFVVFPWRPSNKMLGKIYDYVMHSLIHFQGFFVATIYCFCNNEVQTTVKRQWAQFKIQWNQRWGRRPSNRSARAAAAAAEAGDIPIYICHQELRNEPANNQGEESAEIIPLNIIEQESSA
T1 sequence (looked up) 2: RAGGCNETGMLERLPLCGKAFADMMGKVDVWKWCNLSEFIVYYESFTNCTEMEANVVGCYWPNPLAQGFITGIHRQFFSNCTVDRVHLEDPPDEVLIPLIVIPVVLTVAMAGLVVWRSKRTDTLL


Target: T1, human amylin receptor
Test: SPA competition binding, displacement of 125I-rat amylin from membranes with human amylin 3(a) receptor (Assay V)
Procedure, shortened: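 Membranes from BHK Amylin 3(a)/CRE-luc cells (35 ng/μL final) were mixed with SPA beads and test compounds in 50 mM Hepes pH 7.4 with 1 mM CaCl2, 5 mM MgCl₂, 0.1% OA and 0.02% Tween20. Incubation ran 120 min at 25° C with shaking; IC₅₀ came from one-site competition fitting.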

IC50 [pM] | Binder
636 | K([AEEA-γGlu-C20 diacid])CNTATCATQRLARFLRHSSPNFGAIPSSTNVGSNTY-NH2 (disulfide 2-7; N-terminus assumed; SMILES CC[C@H](C)[C@H](NC(=O)[C@H](C)NC(=O)CNC(=O)[C@H](Cc1ccccc1)NC(=O)[C@H](CC(N)=O)NC(=O)[C@@H]1CCCN1C(=O)[C@H](CO)NC(=O)[C@H](CO)NC(=O)[C@H](Cc1c[nH]cn1)NC(=O)[C@H](CCCNC(=N)N)NC(=O)[C@H](CC(C)C)NC(=O)[C@H](Cc1ccccc1)NC(=O)[C@H](CCCNC(=N)N)NC(=O)[C@H](C)NC(=O)[C@H](CC(C)C)NC(=O)[C@H](CCCNC(=N)N)NC(=O)[C@H](CCC(N)=O)NC(=O)[C@@H](NC(=O)[C@H](C)NC(=O)[C@@H]1CSSC[C@H](NC(=O)[C@@H](N)CCCCNC(=O)COCCOCCNC(=O)CC[C@H](NC(=O)CCCCCCCCCCCCCCCCCCC(=O)O)C(=O)O)C(=O)N[C@@H](CC(N)=O)C(=O)N[C@@H]([C@@H](C)O)C(=O)N[C@@H](C)C(=O)N[C@@H]([C@@H](C)O)C(=O)N1)[C@@H](C)O)C(=O)N1CCC[C@H]1C(=O)N[C@@H](CO)C(=O)N[C@@H](CO)C(=O)N[C@H](C(=O)N[C@@H](CC(N)=O)C(=O)N[C@H](C(=O)NCC(=O)N[C@@H](CO)C(=O)N[C@@H](CC(N)=O)C(=O)N[C@H](C(=O)N[C@@H](Cc1ccc(O)cc1)C(N)=O)[C@@H](C)O)C(C)C)[C@@H](C)O, also called 14R, 17R, 21P, 27P)
249 | K([AEEA-γGlu-C20 diacid])CNTATCATQRLANFLRHSSPNFGAIPSSTNVGSRTY-NH2 (disulfide 2-7; N-terminus assumed; SMILES CC[C@H](C)[C@H](NC(=O)[C@H](C)NC(=O)CNC(=O)[C@H](Cc1ccccc1)NC(=O)[C@H](CC(N)=O)NC(=O)[C@@H]1CCCN1C(=O)[C@H](CO)NC(=O)[C@H](CO)NC(=O)[C@H](Cc1c[nH]cn1)NC(=O)[C@H](CCCNC(=N)N)NC(=O)[C@H](CC(C)C)NC(=O)[C@H](Cc1ccccc1)NC(=O)[C@H](CC(N)=O)NC(=O)[C@H](C)NC(=O)[C@H](CC(C)C)NC(=O)[C@H](CCCNC(=N)N)NC(=O)[C@H](CCC(N)=O)NC(=O)[C@@H](NC(=O)[C@H](C)NC(=O)[C@@H]1CSSC[C@H](NC(=O)[C@@H](N)CCCCNC(=O)COCCOCCNC(=O)CC[C@H](NC(=O)CCCCCCCCCCCCCCCCCCC(=O)O)C(=O)O)C(=O)N[C@@H](CC(N)=O)C(=O)N[C@@H]([C@@H](C)O)C(=O)N[C@@H](C)C(=O)N[C@@H]([C@@H](C)O)C(=O)N1)[C@@H](C)O)C(=O)N1CCC[C@H]1C(=O)N[C@@H](CO)C(=O)N[C@@H](CO)C(=O)N[C@H](C(=O)N[C@@H](CC(N)=O)C(=O)N[C@H](C(=O)NCC(=O)N[C@@H](CO)C(=O)N[C@@H](CCCNC(=N)N)C(=O)N[C@H](C(=O)N[C@@H](Cc1ccc(O)cc1)C(N)=O)[C@@H](C)O)C(C)C)[C@@H](C)O, also called 17R, 21P, 27P, 35R)
602 | K([AEEA-γGlu-C20 diacid])CNTATCATQRLANFLRHSSPNFGAIPSSTNVGRNTY-NH2 (disulfide 2-7; N-terminus assumed; SMILES CC[C@H](C)[C@H](NC(=O)[C@H](C)NC(=O)CNC(=O)[C@H](Cc1ccccc1)NC(=O)[C@H](CC(N)=O)NC(=O)[C@@H]1CCCN1C(=O)[C@H](CO)NC(=O)[C@H](CO)NC(=O)[C@H](Cc1c[nH]cn1)NC(=O)[C@H](CCCNC(=N)N)NC(=O)[C@H](CC(C)C)NC(=O)[C@H](Cc1ccccc1)NC(=O)[C@H](CC(N)=O)NC(=O)[C@H](C)NC(=O)[C@H](CC(C)C)NC(=O)[C@H](CCCNC(=N)N)NC(=O)[C@H](CCC(N)=O)NC(=O)[C@@H](NC(=O)[C@H](C)NC(=O)[C@@H]1CSSC[C@H](NC(=O)[C@@H](N)CCCCNC(=O)COCCOCCNC(=O)CC[C@H](NC(=O)CCCCCCCCCCCCCCCCCCC(=O)O)C(=O)O)C(=O)N[C@@H](CC(N)=O)C(=O)N[C@@H]([C@@H](C)O)C(=O)N[C@@H](C)C(=O)N[C@@H]([C@@H](C)O)C(=O)N1)[C@@H](C)O)C(=O)N1CCC[C@H]1C(=O)N[C@@H](CO)C(=O)N[C@@H](CO)C(=O)N[C@H](C(=O)N[C@@H](CC(N)=O)C(=O)N[C@H](C(=O)NCC(=O)N[C@@H](CCCNC(=N)N)C(=O)N[C@@H](CC(N)=O)C(=O)N[C@H](C(=O)N[C@@H](Cc1ccc(O)cc1)C(N)=O)[C@@H](C)O)C(C)C)[C@@H](C)O, also called 17R, 21P, 27P, 34R)
215 | K([AEEA-γGlu-C20 diacid])CNTATCATQRLANFLRHSSPNFGAIPSSTNVGHNTY-NH2 (disulfide 2-7; N-terminus assumed; SMILES CC[C@H](C)[C@H](NC(=O)[C@H](C)NC(=O)CNC(=O)[C@H](Cc1ccccc1)NC(=O)[C@H](CC(N)=O)NC(=O)[C@@H]1CCCN1C(=O)[C@H](CO)NC(=O)[C@H](CO)NC(=O)[C@H](Cc1c[nH]cn1)NC(=O)[C@H](CCCNC(=N)N)NC(=O)[C@H](CC(C)C)NC(=O)[C@H](Cc1ccccc1)NC(=O)[C@H](CC(N)=O)NC(=O)[C@H](C)NC(=O)[C@H](CC(C)C)NC(=O)[C@H](CCCNC(=N)N)NC(=O)[C@H](CCC(N)=O)NC(=O)[C@@H](NC(=O)[C@H](C)NC(=O)[C@@H]1CSSC[C@H](NC(=O)[C@@H](N)CCCCNC(=O)COCCOCCNC(=O)CC[C@H](NC(=O)CCCCCCCCCCCCCCCCCCC(=O)O)C(=O)O)C(=O)N[C@@H](CC(N)=O)C(=O)N[C@@H]([C@@H](C)O)C(=O)N[C@@H](C)C(=O)N[C@@H]([C@@H](C)O)C(=O)N1)[C@@H](C)O)C(=O)N1CCC[C@H]1C(=O)N[C@@H](CO)C(=O)N[C@@H](CO)C(=O)N[C@H](C(=O)N[C@@H](CC(N)=O)C(=O)N[C@H](C(=O)NCC(=O)N[C@@H](Cc1c[nH]cn1)C(=O)N[C@@H](CC(N)=O)C(=O)N[C@H](C(=O)N[C@@H](Cc1ccc(O)cc1)C(N)=O)[C@@H](C)O)C(C)C)[C@@H](C)O, also called 17R, 21P, 27P, 34H)
532 | K([AEEA-γGlu-C20 diacid])CNTATCATQRLANFLRHSSPNFGAIPSSTNVGSETY-NH2 (disulfide 2-7; N-terminus assumed; SMILES CC[C@H](C)[C@H](NC(=O)[C@H](C)NC(=O)CNC(=O)[C@H](Cc1ccccc1)NC(=O)[C@H](CC(N)=O)NC(=O)[C@@H]1CCCN1C(=O)[C@H](CO)NC(=O)[C@H](CO)NC(=O)[C@H](Cc1c[nH]cn1)NC(=O)[C@H](CCCNC(=N)N)NC(=O)[C@H](CC(C)C)NC(=O)[C@H](Cc1ccccc1)NC(=O)[C@H](CC(N)=O)NC(=O)[C@H](C)NC(=O)[C@H](CC(C)C)NC(=O)[C@H](CCCNC(=N)N)NC(=O)[C@H](CCC(N)=O)NC(=O)[C@@H](NC(=O)[C@H](C)NC(=O)[C@@H]1CSSC[C@H](NC(=O)[C@@H](N)CCCCNC(=O)COCCOCCNC(=O)CC[C@H](NC(=O)CCCCCCCCCCCCCCCCCCC(=O)O)C(=O)O)C(=O)N[C@@H](CC(N)=O)C(=O)N[C@@H]([C@@H](C)O)C(=O)N[C@@H](C)C(=O)N[C@@H]([C@@H](C)O)C(=O)N1)[C@@H](C)O)C(=O)N1CCC[C@H]1C(=O)N[C@@H](CO)C(=O)N[C@@H](CO)C(=O)N[C@H](C(=O)N[C@@H](CC(N)=O)C(=O)N[C@H](C(=O)NCC(=O)N[C@@H](CO)C(=O)N[C@@H](CCC(=O)O)C(=O)N[C@H](C(=O)N[C@@H](Cc1ccc(O)cc1)C(N)=O)[C@@H](C)O)C(C)C)[C@@H](C)O, also called 17R, 21P, 27P, 35E)
52 | K([AEEA-γGlu-C20 diacid])CNTATCATQRLANFLRHSSPNFGAIPPSTPVGSNTY-NH2 (disulfide 2-7, also called 17R, 21P, 27P, 28P, 31P)
